Laboratory results published in patent US9738911B2, “Methods of producing 7-carbon chemicals via pyruvate and succinate semialdehyde aldol condensation” (INVISTA North America S.a r.l., priority 2012, dated 2017).

B1: gene product of tesB: Escherichia coli thioesterase encoded by tesB (GenBank Accession No. AAA24665.1) (protein, listed as Escherichia coli)
chain: MSQALKNLLTLLNLEKIEEGLFRGQSEDLGLRQVFGGQVVGQALYAAKETVPEERLVHSFHSYFLRPGDSKKPIIYDVETLRDGNSFSARRVAAIQNGKPIFYMTASFQAPEAGFEHQKTMPSAPAPDGLPSETQIAQSLAHLLPPVLKDKFICDRPLEVRPVEFHNPLKGHVAEPHRQVWIRANGSVPDDLRVHQYLLGYASDLNFLPVALQPHGIGFLEPGIQIATIDHSMWFHRPFNLNEWLLYSVESTSASSARGFVRGEFYTQDGVLVASTVQEGVMRNHN
B2: SEQ ID NO 7: Segniliparus rotundus carboxylate reductase (Genbank Accession No. ADG98140.1) (protein, listed as Segniliparus rotundus)
chain: MTQSHTQGPQASAAHSRLARRAAELLATDPQAAATLPDPEVVRQATRPGLRLAERVDAILSGYADRPALGQRSFQTVKDPITGRSSVELLPTFDTITYRELRERATAIASDLAHHPQAPAKPGDFLASIGFISVDYVAIDIAGVFAGLTAVPLQTGATLATLTAITAETAPTLFAASIEHLPTAVDAVLATPSVRRLLVFDYRAGSDEDREAVEAAKRKIADAGSSVLVDVLDEVIARGKSAPKAPLPPATDAGDDSLSLLIYTSGSTGTPKGAMYPERNVAHFWGGVWAAAFDEDAAPPVPAINITFLPLSHVASRLSLMPTLARGGLMHFVAKSDLSTLFEDLKLARPTNLFLVPRVVEMLYQHYQSELDRRGVQDGTREAEAVKDDLRTGLLGGRILTAGFGSAPLSAELAGFIESLLQIHLVDGYGSTEAGPVWRDGYLVKPPVTDYKLIDVPELGYFSTDSPHPRGELAIKTQTILPGYYKRPETTAEVFDEDGFYLTGDVVAQIGPEQFAYVDRRKNVLKLSQGEFVTLAKLEAAYSSSPLVRQLFVYGSSERSYLLAVIVPTPDALKKFGVGEAAKAALGESLQKIARDEGLQSYEVPRDFIIETDPFTVENGLLSDARKSLRPKLKEHYGERLEAMYKELADGQANELRDIRRGVQQRPTLETVRRAAAAMLGASAAEIKPDAHFTDLGGDSLSALTFSNFLHDLFEVDVPVGVIVSAANTLGSVAEHIDAQLAGGRARPTFATVHGKGSTTIKASDLTLDKFIDEQTLEAAKHLPKPADPPRTVLLTGANGWLGRFLALEWLERLAPAGGKLITIVRGKDAAQAKARLDAAYESGDPKLAGHYQDLAATTLEVLAGDFSEPRLGLDEATWNRLADEVDFISHPGALVNHVLPYNQLFGPNVAGVAEIIKLAITTRIKPVTYLSTVAVAAGVEPSALDEDGDIRTVSAERSVDEGYANGYGNSKWGGEVLLREAHDRTGLPVRVFRSDMILAHQKYTGQVNATDQFTRLVQSLLATGLAPKSFYELDAQGNRQRAHYDGIPVDFTAESITTLGGDGLEGYRSYNVFNPHRDGVGLDEFVDWLIEAGHPITRIDDYDQWLSRFETSLRGLPESKRQASVLPLLHAFARPGPAVDGSPFRNTVFRTDVQKAKIGAEHDIPHLGKALVLKYADDIKQLGLL
B3: SEQ ID NO 4: Segniliparus rugosus carboxylate reductase (Genbank Accession No. EFV 11917.1) (protein, listed as Segniliparus rugosus)
chain: MGDGEERAKRFFQRIGELSATDPQFAAAAPDPAVVEAVSDPSLSFTRYLDTLMRGYAERPALAHRVGAGYETISYGELWARVGAIAAAWQADGLAPGDFVATVGFTSPDYVAVDLAAARSGLVSVPLQAGASLAQLVGILEETEPKVLAASASSLEGAVACALAAPSVQRLVVFDLRGPDASESAADERRGALADAEEQLARAGRAVVVETLADLAARGEALPEAPLFEPAEGEDPLALLIYTSGSTGAPKGAMYSQRLVSQLWGRTPVVPGMPNISLHYMPLSHSYGRAVLAGALSAGGTAHFTANSDLSTLFEDIALARPTFLALVPRVCEMLFQESQRGQDVAELRERVLGGRLLVAVCGSAPLSPEMRAFMEEVLGFPLLDGYGSTEALGVMRNGIIQRPPVIDYKLVDVPELGYRTTDKPYPRGELCIRSTSLISGYYKRPEITAEVFDAQGYYKTGDVMAEIAPDHLVYVDRSKNVLKLSQGEFVAVAKLEAAYGTSPYVKQIFVYGNSERSFLLAVVVPNAEVLGARDQEEAKPLIAASLQKIAKEAGLQSYEVPRDFLIETEPFTTQNGLLSEVGKLLRPKLKARYGEALEARYDEIAHGQADELRALRDGAGQRPVVETVVRAAVAISGSEGAEVGPEANFADLGGDSLSALSLANLLHDVFEVEVPVRIIIGPTASLAGIAKHIEAERAGASAPTAASVHGAGATRIRASELTLEKFLPEDLLAAAKGLPAADQVRTVLLTGANGWLGRFLALEQLERLARSGQDGGKLICLVRGKDAAAARRRIEETLGTDPALAARFAELAEGRLEVVPGDVGEPKFGLDDAAWDRLAEEVDVIVHPAALVNHVLPYHQLFGPNVVGTAEIIRLAITAKRKPVTYLSTVAVAAGVEPSSFEEDGDIRAVVPERPLGDGYANGYGNSKWAGEVLLREAHELVGLPVAVFRSDMILAHTRYTGQLNVPDQFTRLVLSLLATGIAPKSFYQQGAAGERQRAHYDGIPVDFTAEAITTLGAEPSWFDGGAGFRSFDVFNPHHDGVGLDEFVDWLIEAGHPISRIDDHKEWFARFETAVRGLPEAQRQHSLLPLLRAYSFPHPPVDGSVYPTGKFQGAVKAAQVGSDHDVPHLGKALIVKYADDLKALGLL

Assays:
Type in all cases: biochemical
[1] = Thioesterase enzyme activity assay, pimeloyl-CoA to pimelate; conditions: 667 μM pimeloyl-CoA, 0.8 μM enzyme, 37° C., 20 min, pH 7.4; compared to empty vector control (FIG. 8)
Protocol: A sequence encoding an N-terminal His tag was added to the tesB gene from Escherichia coli that encodes a thioesterase (SEQ ID NO 1, see FIG. 7A), such that an N-terminal HIS tagged thioesterase could be produced. The modified tesB gene was cloned into a pET15b expression vector under control of the T7 promoter. The expression vector was transformed into a BL21[DE3] E. coli host. The resulting recombinant E. coli strain was cultivated at 37° C. in a 500 mL shake flask culture containing 50 mL Luria Broth (LB) media and antibiotic selection pressure, with shaking at 230 rpm. The culture was induced overnight at 17° C. using 0.5 mM IPTO.
The pellet from the induced shake flask culture was harvested via centrifugation. The pellet was resuspended and lysed in Y-Per™ solution (ThermoScientific, Rockford, Ill.). The cell debris was separated from the supernatant via centrifugation. […]
The enzyme activity assay was performed in triplicate in a buffer composed of 50 mM phosphate buffer (pH=7.4), 0.1 mM Ellman's reagent, and 667 μM of pimeloyl-CoA (as substrate). […] The release of Coenzyme A was monitored by absorbance at 412 nm. The absorbance associated with the substrate only control, which contained boiled enzyme, was subtracted from the active enzyme assay absorbance and compared to the empty vector control.

[2] = Carboxylate reductase activity assay, N7-acetyl-7-aminoheptanoate to N7-acetyl-7-aminoheptanal; conditions: 2 mM N7-acetyl-7-aminoheptanoate, 1 mM ATP, 1 mM NADPH, enhanced by sfp gene product, room temperature, 20 min; against empty vector control (FIG. 12)
Protocol: The activity of each of the N-terminal His-tagged carboxylate reductases of SEQ ID NOs: 3, 6, and 7 (see Examples 4, and FIGS. 7B, 7E, and 7F) for converting N7-acetyl-7-aminoheptanoate to N7-acetyl-7-aminoheptanal was assayed in triplicate in a buffer composed of a final concentration of 50 mM HEPES buffer (pH=7.5), 2 mM N7-acetyl-7-aminoheptanoate, 10 mM MgCl2, 1 mM ATP, and 1 mM NADPH. The assays were initiated by adding purified carboxylate reductase and phosphopantetheine transferase or the empty vector control to the assay buffer containing the N7-acetyl-7-aminoheptanoate then incubated at room temperature for 20 min. The consumption of NADPH was monitored by absorbance at 340 nm.

[3] = Carboxylate reductase activity assay, pimelate to pimelate semialdehyde; conditions: 2 mM pimelate, 1 mM ATP, 1 mM NADPH, enhanced by sfp gene product, room temperature, 20 min; against empty vector control (FIG. 10)
Protocol: A sequence encoding a HIS-tag was added to the genes from Segniliparus rugosus and Segniliparus rotundus that encode the carboxylate reductases of SEQ ID NOs: 4 and 7, respectively (see FIGS. 7C and 7F), such that N-terminal HIS tagged carboxylate reductases could be produced. Each of the modified genes was cloned into a pET Duet expression vector along with a sfp gene encoding a HIS-tagged phosphopantetheine transferase from Bacillus subtilis, both under the T7 promoter. Each expression vector was transformed into a BL21[DE3] E. coli host and the resulting recombinant E. coli strains were cultivated at 37° C. in a 250 mL shake flask culture containing 50 mL LB media and antibiotic selection pressure, with shaking at 230 rpm. Each culture was induced overnight at 37° C. using an auto-induction media.
The pellet from each induced shake flask culture was harvested via centrifugation. Each pellet was resuspended and lysed via sonication, and the cell debris was separated from the supernatant via centrifugation. […]
Enzyme activity assays (i.e., from pimelate to pimelate semialdehyde) were performed in triplicate in a buffer composed of a final concentration of 50 mM HEPES buffer (pH=7.5), 2 mM pimelate, 10 mM MgCl, 1 mM ATP and 1 mM NADPH. […] The consumption of NADPH was monitored by absorbance at 340 nm.

[4] = Carboxylate reductase activity assay, pimelate semialdehyde to heptanedial; conditions: 2 mM pimelate semialdehyde, 1 mM ATP, 1 mM NADPH, enhanced by sfp gene product, room temperature, 20 min; against empty vector control (FIG. 13)
Protocol: The N-terminal His-tagged carboxylate reductase of SEQ ID NO 7 (see Example 4 and FIG. 7F) was assayed using pimelate semialdehyde as substrate. The enzyme activity assay was performed in triplicate in a buffer composed of a final concentration of 50 mM HEPES buffer (pH=7.5), 2 mM pimelate semialdehyde, 10 mM MgCl2, 1 mM ATP and 1 mM NADPH. The enzyme activity assay reaction was initiated by adding purified carboxylate reductase and phosphopantetheine transferase or the empty vector control to the assay buffer containing the pimelate semialdehyde and then incubated at room temperature for 20 min. The consumption of NADPH was monitored by absorbance at 340 nm.

Row | Molecule | substrate acceptance, release of Coenzyme A monitored by absorbance at 412 nm [1] | substrate acceptance, consumption of NADPH by absorbance at 340 nm [2] | substrate acceptance, consumption of NADPH by absorbance at 340 nm [3] | substrate acceptance, consumption of NADPH by absorbance at 340 nm [4]
1 | B1 | accepted pimeloyl-CoA as substrate | – | – | –
2 | B2 | – | accepted N7-acetyl-7-aminoheptanoate as substrate | accepted pimelate as substrate | accepted pimelate semialdehyde as substrate
3 | B3 | – | – | accepted pimelate as substrate | –
